Consider 1 substance from paper PMC12375015.

This assay has as its target Cas7 of the PseCAST TniQ-Cascade (QCascade) complex (Pseudoalteromonas (Tn7016 transposon)). The assay can be described thus: cryo-EM structure.

The term stoichiometry N denotes a count of units in the complex or per binding partner. For “Cas7 of the PseCAST TniQ-Cascade (QCascade) complex (natural protein)”, the stoichiometry N was 6.
